Results reported in EP2112164A1 (Institut Pasteur Of Shanghai, dated 2009).

Key:
[1] = target: HIV-1 envelope Q168 (subtype A) (HIV-1 (subtype A)); assay: cell-based or functional assay
[2] = target: HIV-1 envelope pDOL (subtype B) (HIV-1 (subtype B)); assay: cell-based or functional assay

B1: scFv/hinge/his-tag/DAF (anti-HIV-1 gp41 scFv derived from human monoclonal antibody TG15, human IgG3 hinge region, 6 x his tag, GPI anchor replacement signal … (scFv)
scFv: QVQLQQWGAGLLKPSETLSLTCAVYGDSFGGHHWSWIRQPPGKGLEWIGEINFLGNTNYNPSLKSRVAISKDTSKNQFSLTLNSATAADTAVYFCARRETMETASRKRAFDIWGQGTMETVTVSAGGGGSGGGGSGGGGSAELMETTQSPPTLSASVGDRVTITCRASQSLSGWVAWYQQKPGKAPKLLIYKASTLESGVPSRFSGSGSGTVFALTISSLQPDDSATYYCQQHSAFSSTFGQGTKLEIKRTPLGDTTHTSGHHHHHHGSGTTSGTTRLLSGHTCFTLTGLLGTLVTMETGLLT
- relative luciferase activity (RLA) in a single-cycle pseudotype infectivity assay, CEMss-GPI-scFv compared to CEMss-eGFP [1]: 180 fold reduction
- relative luciferase activity (RLA) in a single-cycle pseudotype infectivity assay, CEMss-GPI-scFv compared to CEMss-eGFP [2]: 8 fold reduction
